This is an account of results in patent US20210332142A1 (Genentech, published 2021).

Like-named read-outs stand apart in the source and are kept apart here.

The target in assay [1] is T1, omalizumab.
T1 construct: Used as irrelevant coated protein; also called irrelevant Fc-containing protein; not shown: the constant regions
Briefly: phage ELISA.

The target of assay [2] is T2, mouse Tie2 full extracellular domain fused to mIgG2a Fc (mouse, UniProt Q02858 23-746).
T2 construct: extracellular domain; also called mFull.Fc; not shown: Fc region of mIgG2a, fused at the C-terminus
Put plainly: phage ELISA. Here is the method:
Clones from the fourth round were screened for Tie2 binding and specificity by ELISA. Screening ELISAs were carried out by coating the wells of a 96-well microtiter plate with Tie2 protein or irrelevant protein at 65 ul per well (1 ug/ml in coating buffer) at 4° C. overnight. In a 96-tube plate, colonies from the fourth round were grown overnight at 37° C. in 400 ul 2YT media with 50 ug/ml carbenicillin and helper phage K07. The plate was spun down at 3000 rpm for 10 min. 30 ul of the culture supernatant was added with 60 ul of ELISA buffer (PBS with 0.5% BSA and 0.05% Tween20) to the Tie2-coated plate and incubated at room temperature for 1 hr. Plates were washed with PBS—0.05% Tween20 and 100 ul/well of horseradish peroxidase (HRP)-conjugated anti-M13 antibody (1/5000 dilution in PBS plus 0.5% BSA and 0.05% Tween20) at room temperature for 30 min (Sidhu et al., supra). The wells were washed with PBS—0.05% Tween20 prior to 100 ul/well of a 1:1 ratio of 3,3′,5,5′-tetramethylbenzidine (TMB) peroxidase substrate and Peroxidase Solution B (H₂O₂) ((Kirkegaard-Perry Laboratories (Gaithersburg, Md.)) being added per well and incubated for 5 min at room temperature. The reaction was stopped by adding 100 ul 1M phosphoric Acid (H₃PO₄) per well and the OD of wells was determined using a standard ELISA plate reader at 450 nm.

The target in assay [3] is T3, human Tie2ECD.flag (human, UniProt Q02763 23-748).
T3 construct: also called hTie2.flag; not shown: C-terminal Flag tag
T3 sequence (Q02763 23-748 limits assumed): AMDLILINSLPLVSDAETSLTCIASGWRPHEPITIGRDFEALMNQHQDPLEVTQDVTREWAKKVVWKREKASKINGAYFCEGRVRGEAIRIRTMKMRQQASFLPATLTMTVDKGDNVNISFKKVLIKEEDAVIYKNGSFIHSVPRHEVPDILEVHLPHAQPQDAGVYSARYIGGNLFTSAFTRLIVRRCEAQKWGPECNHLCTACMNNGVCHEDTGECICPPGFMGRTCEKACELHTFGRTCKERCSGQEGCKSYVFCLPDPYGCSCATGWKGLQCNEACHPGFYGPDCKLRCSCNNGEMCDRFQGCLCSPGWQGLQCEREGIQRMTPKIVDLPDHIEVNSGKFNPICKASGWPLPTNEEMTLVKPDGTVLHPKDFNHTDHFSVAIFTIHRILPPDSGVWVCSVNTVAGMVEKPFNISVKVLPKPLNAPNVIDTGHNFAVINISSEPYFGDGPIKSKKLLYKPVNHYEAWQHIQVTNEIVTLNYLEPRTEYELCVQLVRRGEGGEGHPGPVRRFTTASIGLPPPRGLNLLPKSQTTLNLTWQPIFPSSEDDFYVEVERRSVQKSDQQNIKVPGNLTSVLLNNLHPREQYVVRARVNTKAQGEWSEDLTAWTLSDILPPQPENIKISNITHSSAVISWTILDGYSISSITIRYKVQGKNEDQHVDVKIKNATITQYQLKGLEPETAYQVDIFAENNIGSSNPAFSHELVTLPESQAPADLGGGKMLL
Put plainly: Biacore, hIgG captured, 25C. How it is done: (§1) Monovalent affinities of selected anti-Tie2 hIgGs were determined using a Biacore T200 instrument (GE Life Sciences). Anti-humanFc was covalently immobilized on a Series S CM5 Biacore sensor chip to enable non-covalent capture of anti-Tie2 antibodies and binding of human or rat Tie2ECD.flag was monitored in real time at 25° C. using a multi-cycle kinetics experiment format. Between cycles, the surface was regenerated with 3 M MgCl₂. Monovalent affinities were determined by kinetic analysis, using Biacore Evaluation Software (GE Life Sciences) to fit a 1:1 binding model to the data.

For assay [4], the target named is T4, rat Tie2ECD.flag (rat, UniProt A0ABK0L6J5 19-740).
T4 construct: extracellular domain; also called rTie2.flag; not shown: C-terminal Flag tag
Put plainly: Biacore, hIgG captured, 25C. How it is done:
as §1

The target of assay [5] is T5, recombinant human Tie2 extracellular domain (human, UniProt Q02763 23-748).
T5 construct: whole entry named; also called Recombinant human Tie2 ECD; hu Tie2
Put plainly: SPR, IgG captured, 37C. How it is done:
(§2) A human antibody capture chip was prepared using a Series S CM5 chip (GE Life Sciences), a human antibody capture kit (GE Life Sciences) and an amine coupling kit (GE Life Sciences). Antibodies diluted to 5 μg/ml in running buffer (10 mM HEPES, 150 mM NaCl, 0.05% Tween 20, 1 mM EDTA, pH 7.4) were non-covalently captured using a contact time of 20 seconds and a flow rate of 10 μl/minute. Binding to 300 nM and 1500 nM recombinant Tie2 was analyzed at 37° C. using a Single Cycle Kinetics method with a contact time of 60 seconds, a dissociation time of 120 seconds and a flow rate of 50 μl/min. Between cycles, the surface was regenerated by a 30 second injection of 3M MgCl₂ at a flow rate of 30 μl/min. Values for antibody capture levels and analyte binding levels were obtained from the Report Point Table (Biacore Evaluation Software v3.0, GE Life Sciences). […] Table 16: Experiment A; Table 17: Experiment B.
Target sequence in this assay (Q02763 23-748 limits assumed): as above

Assay [6] has as its target T6, recombinant cyno Tie2 extracellular domain (cynomolgus monkey, UniProt Q02763 23-748 (human entry)).
T6 construct: also called Recombinant cyno Tie2 ECD; cy Tie2
T6 chain: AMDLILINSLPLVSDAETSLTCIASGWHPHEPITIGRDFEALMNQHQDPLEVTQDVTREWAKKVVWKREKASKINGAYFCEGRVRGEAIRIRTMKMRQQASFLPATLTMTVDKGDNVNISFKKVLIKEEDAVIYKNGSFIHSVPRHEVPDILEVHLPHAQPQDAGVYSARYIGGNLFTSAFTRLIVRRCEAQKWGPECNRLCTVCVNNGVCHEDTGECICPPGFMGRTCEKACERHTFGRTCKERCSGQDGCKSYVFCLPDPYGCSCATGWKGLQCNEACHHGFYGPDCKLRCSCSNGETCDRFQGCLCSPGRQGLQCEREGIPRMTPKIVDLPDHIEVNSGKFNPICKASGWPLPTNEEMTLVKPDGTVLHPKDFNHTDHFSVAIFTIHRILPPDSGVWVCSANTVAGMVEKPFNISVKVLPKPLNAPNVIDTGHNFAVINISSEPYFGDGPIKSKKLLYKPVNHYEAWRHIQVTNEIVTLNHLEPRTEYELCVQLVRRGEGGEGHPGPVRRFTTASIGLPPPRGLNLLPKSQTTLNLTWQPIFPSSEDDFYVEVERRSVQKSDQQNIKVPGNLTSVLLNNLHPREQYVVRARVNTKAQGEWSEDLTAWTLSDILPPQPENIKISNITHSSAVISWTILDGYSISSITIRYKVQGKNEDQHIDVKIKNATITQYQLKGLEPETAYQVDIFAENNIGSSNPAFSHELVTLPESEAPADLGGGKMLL
Put plainly: SPR, IgG captured, 37C. How it is done:
as §2

For assay [7], the target named is T5, recombinant human Tie2 extracellular …. Briefly: SPR, IgG captured, 37C. Here is the method:
as §2
The source holds these as a separate data set.
Target sequence in this assay (Q02763 23-748 limits assumed): as the sequence (Q02763 23-748 limits assumed) above

For assay [8], the target named is T6, recombinant cyno Tie2 extracellular …. Put plainly: SPR, IgG captured, 37C. How it is done:
as §2

Assay [9] deals with T5, recombinant human Tie2 extracellular …. Put plainly: SPR, IgG captured, steady state analysis. Here is the method:
(§3) Binding to recombinant human and cyno Tie2 was analyzed using a high performance multi-cycle kinetics format with a contact time of 60 seconds, a dissociation time of 60 seconds, a flow rate of 100 μl/minute and Tie2 concentrations of 5 μM, 2.5 μM, 1.25 μM, 625 nM, 313 nM and 156 nM. Tie2 concentrations of 5 μM, 2.5 μM and 1.25 μM were injected twice. Results were analyzed using Biacore T200 Evaluation Software v3.0 (GE Life Sciences). Results from all three surface densities were analyzed together using the 1:1 Binding model with multiple Rmax and the RI parameter set to zero.

The target of assay [10] is T6, recombinant cyno Tie2 extracellular …. Briefly: SPR, IgG captured, steady state analysis. Here is the method: as §3
Assay [11] deals with T5, recombinant human Tie2 extracellular …. Put plainly: SPR multi-cycle kinetics, IgG captured, kinetic analysis. Here is the method:
Binding to 300 nM and 1500 nM recombinant Tie2 was analyzed at 37° C. using a Single Cycle Kinetics method with a contact time of 60 seconds, a dissociation time of 120 seconds and a flow rate of 50 μl/min. Between cycles, the surface was regenerated by a 30 second injection of 3M MgCl₂ at a flow rate of 30 μl/min. Values for antibody capture levels and analyte binding levels were obtained from the Report Point Table (Biacore Evaluation Software v3.0, GE Life Sciences). […] Table 16: Experiment A; Table 17: Experiment B.
as §3

The target of assay [12] is T6, recombinant cyno Tie2 extracellular …. Described as above. Here is the method: as §3
The target is the same in assay [13]. Put plainly: SPR multi-cycle kinetics, IgG captured, kinetic analysis; cyno Tie2; kinetic analysis. How it is done: as §3
Assay [14] concerns the target T5, recombinant human Tie2 extracellular …. Put plainly: SPR multi-cycle kinetics, IgG captured, kinetic analysis; human Tie2; kinetic analysis. Here is the method: as §3

B1: Tie2.38 (antibody, IgG1, V domains shown)
VH: EVQLVESGGGLVQPGGSLRLSCAASGFTFSNSAIHWVRQAPGKGLEWVASITPYNGYTYYADSVKGRFTISADTSKNTAYLQMNSLRAEDTAVYYCARRQSYSYVMDYWGQGTLVTVSS
VL: DIQMTQSPSSLSASVGDRVTITCRASQDVSTAVAWYQQKPGKAPKLLIYSASFLYSGVPSRFSGSGSGTDFTLTISSLQPEDFATYYCQQSYTTPPTFGQGTKVEIKR
notes: hIgG1 in later assays; also called Ab38
Regarding B1, the binding result in assay [1] is “no binding”; in [2] it was “binds”. For the same molecule, the Kd is 376 nM in assay [3] and 2200 nM in [4].

B2: Tie2.33 (antibody, IgG1, V domains shown)
VH: EVQLVESGGGLVQPGGSLRLSCAASGFTFSGSWISWVRQAPGKGLEWVARINPYDGNTYYADSVKGRFTISADTSKNTAYLQMNSLRAEDTAVYYCARNNRFPTWFDYWGQGTLVTVSS
VL: B1 VL
notes: hIgG1 in later assays; also called Ab33; T2.33
Turning to B2, the binding result in assay [1] is given as “no binding”; in assay [2], “binds”.

B3: Tie2.1.M100cF (antibody, IgG1, V domains shown)
VH: EVQLVESGGGLVQPGGSLRLSCAASGFTFSNTDISWVRQAPGKGLEWVGRISPSDGNTYYADSVKGRFTISADTSKNTAYLQMNSLRAEDTAVYYCARRTRWASWAFDYWGQGTLVTVSS
VL: DIQMTQSPSSLSASVGDRVTITCRASQDVSTAVAWYQQKPGKAPKLLIYSASFLYSGVPSRFSGSGSGTDFTLTISSLQPEDFATYYCQQSYTTPPTFGQGTKVEIK
notes: hIgG1 in the SPR and binning assays
As to B3, the “Normalized Binding Signal, 300 nM” value was determined as 0.14 in assay [5], 0.12 in assay [6], 0.16 in assay [7] and 0.14 in assay [8]. The “Normalized Binding Signal, 1500 nM” value in assay [5] worked out at 0.44; in assay [6] it was 0.42; in assay [7], 0.48; in assay [8] it was 0.46. Further, the Kd in assay [9], in assay [10], in [13] and in assay [14] was 2000 nM throughout. In addition, the koff in assay [11] was 0.39 s⁻¹; in assay [12], 0.37 s⁻¹. Besides, the figures for the kon in [11] and in assay [12] were 220000 M⁻¹ s⁻¹ and 190000 M⁻¹ s⁻¹, respectively.
